Laboratory results published in paper PMC7904744, “Poly(ADP-ribosyl)ation enhances HuR oligomerization and contributes to pro-inflammatory gene mRNA stabilization”.

Experiments:
Settings in all cases: protein: recombinant; tags: GST; label: 5' biotin
GST-HuR-RRM1 [1] = molecular target: T1, GST-HuR-RRM1 (UniProt Q15717 20-98); experiment: EMSA; EMSA: 3 mM MgCl2, 40 mM KCl, 5% glycerol, 2 mM DTT, 2 ug tRNA, 5 nM RNA, 40 min room temperature; pH not stated; 6% native acrylamide gel
GST-HuR = GST-HuR (UniProt Q15717 1-326); experiment: EMSA; unmodified; multiple shifted bands (oligomer); EMSA: 3 mM MgCl2, 40 mM KCl, 5% glycerol, 2 mM DTT, 2 ug tRNA, 5 nM RNA, 40 min room temperature; pH not stated; 6% native acrylamide gel
GST-HuR, sequence (Q15717 whole entry): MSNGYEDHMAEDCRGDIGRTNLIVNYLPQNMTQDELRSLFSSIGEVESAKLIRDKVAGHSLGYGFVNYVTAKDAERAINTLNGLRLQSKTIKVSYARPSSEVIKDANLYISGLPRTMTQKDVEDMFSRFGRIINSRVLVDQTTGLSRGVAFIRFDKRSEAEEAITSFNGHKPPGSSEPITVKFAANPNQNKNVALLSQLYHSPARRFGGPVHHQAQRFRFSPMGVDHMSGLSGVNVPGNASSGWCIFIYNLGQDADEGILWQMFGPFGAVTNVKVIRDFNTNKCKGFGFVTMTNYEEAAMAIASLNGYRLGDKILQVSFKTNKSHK

GST-HuR-RRM1 [2] = molecular target: T1, GST-HuR-RRM1; experiment: EMSA; no multiple shifted bands (Fig 4d); EMSA: 3 mM MgCl2, 40 mM KCl, 5% glycerol, 2 mM DTT, 2 ug tRNA, 5 nM RNA, 40 min room temperature; pH not stated; 6% native acrylamide gel

T1 sequence (Q15717 20-98): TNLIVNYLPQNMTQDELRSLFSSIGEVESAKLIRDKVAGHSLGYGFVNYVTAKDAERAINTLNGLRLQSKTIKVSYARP

Which results are given for AUUUAUUUAUUUAUUUAUUUAUUUA (ssRNA) [AU-rich RNA oligo (tandem ARE repeat)]?
binding result (GST-HuR-RRM1 [1]): binds; binding result (GST-HuR): binds

Which results are given for CUAUGUAUUUAUUUAUUUAUUAAUU (ssRNA) [Cxcl2 ARE RNA oligo]?
binding result (GST-HuR): binds; binding result (GST-HuR-RRM1 [2]): binds
